Measured values: article PMC4755828 (Nature chemical biology, 2016)
Blank lines part the entries; values can stand above or below the molecule they belong to. Square brackets hold non-standard residues; d marks the D form. Ends that are not written are not given here. Peptide text beside a SMILES is read from it. * marks the point of attachment. Benzoyl(4-tBu) = CC(C)(C)c1ccc(C(=O)*)cc1; Lys(Me3) = C[N+](C)(C)CCCC[C@H](N)C(=O)O; Lys(Et2) = CCN(CC)CCCC[C@H](N)C(=O)O

Legend:
[1] = tested on: CBX7; settings: cited from earlier work
[2] = biological target: CBX7 (AlphaScreen construct); assay: AlphaScreen or HTRF
[3] = biological target: CBX2 chromodomain (residues 9-66) (UniProt Q14781); assay: ITC
CBX2 chromodomain (residues 9-66), sequence (Q14781 9-66): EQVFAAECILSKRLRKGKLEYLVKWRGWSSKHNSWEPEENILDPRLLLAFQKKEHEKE

[4] = biological target: CDYL2 chromodomain (residues 1-75) (UniProt Q8N8U2); assay: ITC
CDYL2 chromodomain (residues 1-75), sequence (Q8N8U2 1-75): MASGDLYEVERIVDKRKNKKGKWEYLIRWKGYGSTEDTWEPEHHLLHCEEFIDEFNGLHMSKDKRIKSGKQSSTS

[5] = biological target: CBX4 chromodomain (residues 8-65), N-terminal His-tag (UniProt O00257); assay: ITC
[6] = biological target: CDY1 chromodomain (residues 1-101) (UniProt Q9Y6F8); assay: ITC
CDY1 chromodomain (residues 1-101), sequence (Q9Y6F8 1-101): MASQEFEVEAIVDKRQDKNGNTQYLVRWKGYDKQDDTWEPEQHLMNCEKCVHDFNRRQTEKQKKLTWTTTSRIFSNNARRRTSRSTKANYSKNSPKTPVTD

[7] = biological target: CBX6 chromodomain (residues 8-65) (UniProt O95503); assay: ITC
CBX6 chromodomain (residues 8-65), sequence (O95503 8-65): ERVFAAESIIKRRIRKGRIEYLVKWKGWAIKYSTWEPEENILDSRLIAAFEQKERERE

[8] = biological target: CDYL1b chromodomain (residues 1-78) (UniProt Q9Y232); assay: ITC
[9] = biological target: CBX7 chromodomain (residues 8-62), C-terminal His-tag (UniProt O95931); assay: ITC
CBX7 chromodomain (residues 8-62), C-terminal His-tag, sequence (O95931 8-62): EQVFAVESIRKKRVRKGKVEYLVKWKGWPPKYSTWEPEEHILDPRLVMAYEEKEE

[10] = biological target: CBX8 chromodomain (residues 8-61), N-terminal His-tag (UniProt Q9HC52); assay: ITC
CBX8 chromodomain (residues 8-61), N-terminal His-tag, sequence (Q9HC52 8-61): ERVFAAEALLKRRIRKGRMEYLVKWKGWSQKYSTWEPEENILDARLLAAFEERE

[11] = tested on: HEK293T cells; assay: CellTiter-Glo cell viability assay; assay type: cell-based; settings: up to 100 μM, 48 hours
[12] = Mouse pharmacokinetics; assay type: in vivo; settings: male swiss albino mice
[13] = tested on: PC3 cells; assay: CellTiter-Glo cell viability assay; assay type: cell-based; settings: up to 100 μM, 48 hours
[14] = tested on: PC3 cells; assay: Intracellular concentration by LC-MS/MS; assay type: in vitro ADME
[15] = Intracellular concentration by LC-MS/MS; assay type: in vitro ADME; settings: human, PC3 cells

IC50 [2]: 66 nM
Kd [3]: 1800 nM
Kd [4]: 850 nM
Kd [5]: 94 nM
Kd [6]: 6300 nM
Kd [7]: 610 nM
Kd [8]: 910 nM
Kd [9]: 97 nM
Kd [10]: 1200 nM
Molecule: UNC3866 (peptide)

Kd [9]: 6700 nM
Molecule: UNC3567 (peptide)

Second part, the molecule before the results:

Molecule: RGFAL[Lys(Me3)]STHG
affinity for CBX7 relative to the corresponding H3K27me3 peptide [1]: 22 fold
Kd ([1]; read-out: CBX7 Kd): 5000 nM

Molecule: UNC4195 (peptide)
Kd [9]: 220 nM

Molecule: CCN(CC)CCCC[C@H](NC(=O)[C@H](CC(C)C)NC(=O)[C@H](C)NC(=O)[C@H](Cc1ccccc1)NC(=O)c1ccc(C(C)(C)C)cc1)C(=O)N[C@@H](CO)C(=O)OC [UNC3866] ({Benzoyl(4-tBu)}-FAL[Lys(Et2)]S-OMe)
toxicity in HEK293T cells [11]: no toxic effects
clearance (in words) [12]: moderate
toxicity in PC3 cells [13]: no toxic effects
intracellular concentration ([14]; PC3 cells treated with 30 μM UNC3866 for 24 hrs, LC-MS/MS): 1.4 ± 0.3 µM
intracellular concentration as % of the extracellular concentration ([14]; PC3 cells, 30 μM UNC3866, 24 hours): ~5%
EC50 [15]: 340 nM
